Measured values from the supplement of paper PMC5998384.

How the values were obtained:
HeLa Kyoto [1] = assay: solubility in G1/S (NP-40 vs SDS abundance) (log2 ratio); higher = more soluble; settings: cell cycle stage: G1/S
HeLa Kyoto [2] = assay: melting temperature (median over replicates), in situ; higher = more thermally stable
HeLa Kyoto [3] = assay: solubility change mitosis vs G1/S (difference of NP-40 vs SDS log2 ratios) (log2 ratio difference); higher = more soluble in mitosis
HeLa Kyoto [4] = assay: thermal stability score vs G1/S (z-score of summed log2 fold changes over temperatures); higher = more thermally stable than in G1/S
[5] = cell cycle stage: early G1 (4.5 h after nocodazole release)
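Wherever melting temperature (median over replicates), in situ is given: HeLa Kyoto cells synchronized by double thymidine or nocodazole block, proteins quantified by TMT10plex mass spectrometry, three independent biological replicates.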
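Wherever solubility change mitosis vs G1/S (difference of NP-40 vs SDS log2 ratios) is given: synchronized HeLa Kyoto cells (double thymidine block for G1/S, nocodazole release for mitosis), protein amounts in NP-40 versus SDS lysates quantified by mass spectrometry, three biological replicates.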
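Wherever solubility in G1/S (NP-40 vs SDS abundance) is given: HeLa Kyoto cells arrested at G1/S by double thymidine block, proteins quantified by TMT10plex mass spectrometry in mild NP-40 versus SDS extracts, three biological replicates.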
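Wherever thermal stability score vs G1/S (z-score of summed log2 fold changes over temperatures) is given: synchronized HeLa Kyoto cells, proteins quantified by TMT10plex mass spectrometry, three biological replicates, mitosis taken 0.5 h after nocodazole release, G1/S directly after double thymidine block.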

Sequence | solubility in G1/S (log2) (HeLa Kyoto [1]) | melting temperature (HeLa Kyoto [2]; cell cycle stage: G1/S) | melting temperature (HeLa Kyoto [2]; cell cycle stage: mitosis) | solubility change mitosis (log2) (HeLa Kyoto [3]) | thermal stability score (HeLa Kyoto [4]; [5]) | thermal stability score (HeLa Kyoto [4]; cell cycle stage: mitosis)
MDIYDTQTLGVVVFGGFMVVSAIGIFLVSTFSMKETSYEEALANQRKEMAKTHHQKVEKKKKEKTVEKKGKTKKKEEKPNGKIPDHDPAPNVTVLLREPVRAPAVAVAPTPVQPPIIVAPVATVPAMPQEKLASSPKDKKKKEKKVAKVEPAVSSVVNSIQVLTSKAAILETAPKEVPMVVVPPVGAKGNTPATGTTQGKKAEGTQNQSKKAEGAPNQGRKAEGTPNQGKKTEGTPNQGKKAEGTPNQGKKAEGTPNQGKKAEGAQNQGKKVDTTPNQGKKVEGAPTQGRKAEGAQNQAKKVEGAQNQGKKAEGAQNQGKKGEGAQNQGKKAEGAQNQGKKAEGAQNQGKKAEGAQNQGKKAEGAQNQGKKAEGAQNQGKKAEGAQNQGKKVEGAQNQGKKAEGAQNQGKKAEGAQNQGKKAEGAQNQGKKAEGAQNQGKKAEGAQNQGKKAEGAQNQGKKAEGAQNQGKKVEGAQNQGKKAEGAQNQGKKAEGAQNQGKKAEGAQNQGQKGEGAQNQGKKTEGAQGKKAERSPNQGKKGEGAPIQGKKADSVANQGTKVEGITNQGKKAEGSPSEGKKAEGSPNQGKKADAAANQGKKTESASVQGRNTDVAQSPEAPKQEAPAKKKSGSKKKGEPGPPDADGPLYLPYKTLVSTVGSMVFNEGEAQRLIEILSEKAGIIQDTWHKATQKGDPVAILKRQLEEKEKLLATEQEDAAVAKSKLRELNKEMAAEKAKAAAGEAKVKKQLVAREQEITAVQARMQASYREHVKEVQQLQGKIRTLQEQLENGPNTQLARLQQENSILRDALNQATSQVESKQNAELAKLRQELSKVSKELVEKSEAVRQDEQQRKALEAKAAAFEKQVLQLQASHRESEEALQKRLDEVSRELCHTQSSHASLRADAEKAQEQQQQMAELHSKLQSSEAEVRSKCEELSGLHGQLQEARAENSQLTERIRSIEALLEAGQARDAQDVQASQAEADQQQTRLKELESQVSGLEKEAIELREAVEQQKVKNNDLREKNWKAMEALATAEQACKEKLLSLTQAKEESEKQLCLIEAQTMEALLALLPELSVLAQQNYTEWLQDLKEKGPTLLKHPPAPAEPSSDLASKLREAEETQSTLQAECDQYRSILAETEGMLRDLQKSVEEEEQVWRAKVGAAEEELQKSRVTVKHLEEIVEKLKGELESSDQVREHTSHLEAELEKHMAAASAECQNYAKEVAGLRQLLLESQSQLDAAKSEAQKQSDELALVRQQLSEMKSHVEDGDIAGAPASSPEAPPAEQDPVQLKTQLEWTEAILEDEQTQRQKLTAEFEEAQTSACRLQEELEKLRTAGPLESSETEEASQLKERLEKEKKLTSDLGRAATRLQELLKTTQEQLAREKDTVKKLQEQLEKAEDGSSSKEGTSV [RRBP1] | 0.0657 | 53.2 °C | 53.7 °C | 0.448 | 2.64 | 7.14
MGPAPAGEQLRGATGEPEVMEPALEGTGKEGKKASSRKRTLAEPPAKGLLQPVKLSRAELYKEPTNEELNRLRETEILFHSSLLRLQVEELLKEVRLSEKKKDRIDAFLREVNQRVVRVPSVPETELTDQAWLPAGVRVPLHQVPYAVKGCFRFLPPAQVTVVGSYLLGTCIRPDINVDVALTMPREILQDKDGLNQRYFRKRALYLAHLAHHLAQDPLFGSVCFSYTNGCHLKPSLLLRPRGKDERLVTVRLHPCPPPDFFRPCRLLPTKNNVRSAWYRGQSPAGDGSPEPPTPRYNTWVLQDTVLESHLQLLSTILSSAQGLKDGVALLKVWLRQRELDKGQGGFTGFLVSMLVVFLVSTRKIHTTMSGYQVLRSVLQFLATTDLTVNGISLCLSSDPSLPALADFHQAFSVVFLDSSGHLNLCADVTASTYHQVQHEARLSMMLLDSRADDGFHLLLMTPKPMIRAFDHVLHLRPLSRLQAACHRLKLWPELQDNGGDYVSAALGPLTTLLEQGLGARLNLLAHSRPPVPEWDISQDPPKHKDSGTLTLGLLLRPEGLTSVLELGPEADQPEAAKFRQFWGSRSELRRFQDGAIREAVVWEAASMSQKRLIPHQVVTHLLALHADIPETCVHYVGGPLDALIQGLKETSSTGEEALVAAVRCYDDLSRLLWGLEGLPLTVSAVQGAHPVLRYTEVFPPTPVRPAFSFYETLRERSSLLPRLDKPCPAYVEPMTVVCHLEGSGQWPQDAEAVQRVRAAFQLRLAELLTQQHGLQCRATATHTDVLKDGFVFRIRVAYQREPQILKEVQSPEGMISLRDTAASLRLERDTRQLPLLTSALHGLQQQHPAFSGVARLAKRWVRAQLLGEGFADESLDLVAAALFLHPEPFTPPSSPQVGFLRFLFLVSTFDWKNNPLFVNLNNELTVEEQVEIRSGFLAARAQLPVMVIVTPQDRKNSVWTQDGPSAQILQQLVVLAAEALPMLEKQLMDPRGPGDIRTVFRPPLDIYDVLIRLSPRHIPRHRQAVDSPAASFCRGLLSQPGPSSLMPVLGYDPPQLYLTQLREAFGDLALFFYDQHGGEVIGVLWKPTSFQPQPFKASSTKGRMVMSRGGELVMVPNVEAILEDFAVLGEGLVQTVEARSERWTV [NOL6] | -1.58 | 52.4 °C | 51.4 °C | 0.851 | -1.55 | -1.79
